For 16 sequences, protein production results are on record in a protein production outcome set (Wang et al. 2014).

The data set can be described thus: label from the status in PepcDB records.
As to “MDRVMRDDLHIMPPPAPLAMQAQDFSAGFRDALAPPDSPQRDVAPWRVLAFSPAMAATLALVWLMGDWFSDSGISVLEAVLLALISFNFFWIAFAASTVLLGMLSLSRQPARARAGRAEPLKVALLMPVYNEVPWYVLGNARTMLEELKARGGQHQYAMFILSDTRDDAIAAQEQASVEALRTTLAPDLALYYRRRVENTDRKVGNIADWVAGWGGAWDAMLVLDADSLMTGRAIARLTDALARDPGAGLIQSFPQLIGAQSVFARMQQFANGVYGAAFAEGMARWCGQEGNYWGHNAIIRTAAFANCAGLPKLRSLSGREKLIMSHDFVEAGLLRRAGWSVRFLPRIRGSYEETPPTLIDHVLRDRRWCQGNLQHLNLLNARGFRSVSRFHMFHGAIGYLMSPIWFALLVMWALIGHGQDGSVLQYFSPDNPLFPQWPEMTEGRHVLIIVVMYAMLLLPKLLGVLALPLSGAHYSDFGGAGRFLLSFLSEVVLSILYAPILMVQQMIAVFRTFLGIQKGWSPQARDGGTYGLGTLVKCHMLETLSGLALGTGIALGLVSVWLAPIALSLALAVPLSALSGVSAGTARRLIGMREEFREPAITRSARAYRNELKTLLERGSRIHPAE”, the protein production entry was “failed”.

“MDRWNMHKPMLCDSLPTASRTAAAILNLAQREDVTAEALAQLIQTDPALTGRILRFANAPAQGTRRPVASVIDAIDLVGLPAVRQFALSLSLIDAHREGRCEAFDYAAYWQKSLARAVALQSITAQASTVAPKEAFTLGLLADVGRLALATAWPEEYSECLRKADGEALIALERERFATDHDELTRMLLTDWGFPQVFIDALQLSQQDEIRDEGRTGRFARQLALAQHIADHRLAEEPRRAALSPLLRAEARRCGLGDEDLARLLADPPADWLDWTRTIGLEHHHHHH”: the protein production entry is “not failed”.

For the sequence “MDSGCWLFGGEFEDSVFEERPERRSGPPASYCAKLCEPQWFYEETESSDDVEVLTLKKFKGDLAYRRQEYQKALQEYSSISEKLSSTNFAMKRDVQEGQARCLAHLGRHMEALEIAANLENKATNTDHLTTVLYLQLAICSSLQNLEKTIFCLQKLISLHPFNPWNWGKLAEAYLNLGPALSAALASSQKQHSFTSSDKTIKSFFPHSGKDCLLCFPETLPESSLFSVEANSSNSQKNEKALTNIQNCMAEKRETVLIETQLKACASFIRTRLLLQFTQPQQTSFALERNLRTQQEIEDKMKGFSFKEDTLLLIAEVMGEDIPEKIKDEVHPEVKCVGSVALTALVTVSSEEFEDKWFRKIKDHFCPFENQFHTEIQILA”, the protein production result is on record as “failed”.

In the case of “MDSGQIILNLVIIVITFFVAAFFVACEFALVQTRPSALEEEQKKRDKPSKRIATSLHMVRNLNEYLSTTQVGVSLAGIILGWIGEQTTEHFVLDFLSLFNLSVSTAVLRGISIVIGVFLLTYLEVVLTEIVPKNIAIDMPLKVMAVITTPLRWFHVMFYPFVWLLNVSSAGVVKMLGIPVANEDNDVYSQAEILNLSRNAVTGGELERNDYLYMERAFEFNDKIAKDIMIDRTQLVVIDINDTVKQAIRVYLQKRFSRLPVVANNDKDKILGYVYNYDLIRQGEVDDDIRVNKLLRNIITIPETTPIQAILQKMIDKQTPIVVVVDEYGGTSGIVTDKDIYEELFGTVNDEIDNVSNEYIEKQADGTYRISGKMTIYDFERYFKTDLQEFEDSDVVTLTGYILDNFPKIQAGDTIQIGNFNFKALDFENAYINWFEVSAQRDSTPDDHNDDQTQD”, the protein production entry was “failed”.

In the case of “MDSMDHRIERLEYYIQLLVKTVDMDRYPFYALLIDKGLSKEEGEAVMRICDELSEELATQKAQGFVTFDKLLALFAGQLNEKLDVHETIFALYEQGLYQELMEVFIDIMKHFD”, the protein production entry is given as “not failed”.

With “MDSSNYFYGGNNICIINTKWGKHSGIGGYAEIIDTLVGNFTNISSWAKIGIRDHIHTNFLICDFVYKDNDHIMPPGISSFEDYWVKIGNDVWVGTNVTILRGVEVGDGAVIAAGSVVTKSIPPYAIVGGNPAKFIKWRFPFEVREKLLEIKLEHHHHHH”, the protein production result was “failed”.

In the case of “MDTFNYQNFYNQEYYLNMVPGIPYDREAHGGHWLRFFNTVADRLINYVSPTSVLDVGCAKGFLLEAFYNRGILVHGFDYSEYAISCVREDLKPFAFVASAANSNAFLEKQDSYDLITCIEVVEHMPRDEAWLAIKNMCQSAKSIFFSSTSDDFAEPTHLTVLPRIYWLETFLSFGFVPDYKFDIHDLIPHGILLRKIDDNLTAFKMLIEVNETNLEVIKQQKIDIEKLNSEKVNLENKLQQTQTELERSHSQLQQTQTELERSHSQLQQTQTELERSHSQLQQTQTELERSHSQLQQTQTELERSHSQLHQTQTELERSQSQLQQTQTELERSQSQLQQIQMALTLPQSQLYQMQTELEHWKNLVDWMEGSRFWKLRALCLSLKKKIINFPIIKLDFGSLPVFRKNNYPIFVKRTGKLIKNQIMSFRTQNDFADEILAGVLQSFAESPEYSQWIKDYEAKNDELKEQRINAASFPYQPVLSIILPVYKLPLTVLQETINSVIQQTYSNWELCIAFADIDNYQTIDYLKTLSLQEKRIKLKVMAENKGISGNSNVSLNMASGEFVALLDHDDLLAPFAFYEVISELNKQPDLDFIYSDKDCISANSMVRSRLLLKPEWSPEILYSANYLTHLCIARRTLLEKIGGFRPETDGAQDWDLFLRITENTSRIARINSVLYHWRIIQGSTSLGIDSKPYALEGQLRSIQDHLTRTKLPATVSPHPESGFRLEWQASSAEVSIYIDGDVSWDSLSACIHAVSEFADPKLHKATIVLAEHTYTSKATERENLITAVNLPIDWLPIKEGDSKLATLANTIKQDKTDVVVFVSGLVKKFTEGWIQELSGWVLNHPDIGFVSSLVLTDNNLVVEAGLVVDQYNNGSPLMRGNFLYSWDIFGGALWYRNCSASSPWSIAFSYKNYLEGGGLPSNSPSLSHSMIKLCQAIRVNNKRGLVNPHARAFLQDLPKNDIPEFDDSLGNDPYFHPAFSSVVPLKLRVKNGKKN”, the protein production result is “failed”.

Regarding “MDTIRSIFIIWKDDRMSFLNNSIIYHIAIILYACSISLYFIDYFQSNRKANRFAFWLLSIVWVLHSIFMLLRATDSETNPLLTLLSGIYFYVWLLITMSLVINRFMRIDFLVFFTNVVAFGVSAFSIFTPLGKMSPVLAEQLVSELVYVHVGMAIISYATFTVSFIFSIMYLLQYRLLKKKKWNARLRRLGNLPKLESMSYGLNLFSVPFFLLAILLGCIWGYTKLDNFHWYDTKVIGSFVVLFVYCAGLYLRAADVLQGKKIVQWNIGAFLVMLINIFLLSSLSNFHFWYL”, the protein production result is recorded as “failed”.

Take “MDTKHFLPLDFSTQVNSSLTSPTGRGSMAAPSLHPSLGPGIGSPGQLHSPISTLSSPINGMGPPFSVISSPMGPHSMSVPTTPTLGFSTGSPQLSSPMNPVSSSEDIKPPLGLNGVLKVPAHPSGNMASFTKHICAICGDRSSGKHYGVYSCEGCKGFFKRTVRKDLTYTCRDNKDCLIDKRQRNRCQYCRYQKCLAMGMKREAVQEERQRGKDRNENEVESTSSANEDMPVERILEAELAVEPKTETYVEANMGLNPSSPNDPVTNICQAADKQLFTLVEWAKRIPHFSELPLDDQVILLRAGWNELLIASFSHRSIAVKDGILLATGLHVHRNSAHSAGVGAIFDRVLTELVSKMRDMQMDKTELGCLRAIVLFNPDSKGLSNPAEVEALREKVYASLEAYCKHKYPEQPGRFAKLLLRLPALRSIGLKCLEHLFFFKLIGDTPIDTFLMEMLEAPHQMT”: the protein production result is recorded as “failed”.

“MDTQTVAAYDTLAETFAREWREQPAPDDLYALLRRMFKAGGDTVDIGCGAGREVAWLNANGYPAVGYDASAGLLEAARTQYPGLSFRRAMLPELVGIAEGAFDNVVCETVIMHLPPAQIGAAVRRLLALLRPGGTLYLSWRVTPEADQRDGRGRLYTAFDAAGVREALAGAQVLFDEVAVSQSSGLEHHHHHH”: the protein production entry was “not failed”.

As to “MDTTAVLLKGPKDLDVDTLQLHVPGDGDLVVEIEHSGISTGTEKLFWSGEMPPFPGMGYPLVPGYEAVGEVVEADRATGFKVGERVFVPGANCYDGAFGLFGGAASRVVTASDRVTRIDAGHGASGALLALAATARHSMAGLNKSVPDLIVGHGVLGRLLARLTIAAGAPAPMVWEIDESRRKGAQGYEVIAPEDDPRRDYTSVYDASGSVEVLNDLVGRLAKGGEIVLAGFYTTAISFAFPPAFMKEARFRVAAEWTHDDLAATRALVEGGSLSLENLITHQASHLNARAAYAQAFTDPDCLKMILNWKDVA”, the protein production entry was “failed”.

On to “MDTVPPRTYNNSNFPEGLPAVSLSDEERARQQRWTPLRVTIWILISAIAGLGWWMLAVRRGETVNGIWFVFAAIGSYFIGYRFYAKYIQDKLVHPDDSRATPAEYDYNGRDFVPTDRRILYGHHFAAIAGAGPLVGPVLSAQMGYLPSTIWIIVGVILAGAVQDYLVLVISMRRGGRSLGQMAREELGRFGGIAALIATLTIMLIIVAILAMVVVNSLAASSWGVWSVGLTIPIALLMGFYLRYLRPGKVFEVSIIGIVLLVLAIASGAWIENTAVASALHLSKPFLAWAIIIYGFIAAVLPVWMLLAPRDYLSTFMKVGVIAMLAISIVIVRPVINVPAMTVYATNGAGPVFSGKLFPFLFVTIACGALSGFHATISSGTTPKLIEKESQARLIGYGGMLMESFVAIMALVAALSVDRGIYFAMNSPAGATGNTVKSAIAYVNSLGLSGVHANANTLTTTAKLVGETSIVSRTGGAPTLAVGLATIMHKIFGGEAMMSFWYHFAIMFEALFILTSVDAGTRVARFMLSDALGNFWPRLKDHSWKVGSWLTTAIMVAGWGSILLMGVTDPLGGINTLFPLFGIANQLLAAVALSICLVIFARAGHTWRLLIIFVPMLFTAIITVYGSWLKIFSPDPKLGYWANHMTYKRAIADGKTSLGQAKNIDEMHTVVGNTAIQGTMSIIFVVCALIVMIVACIRTVQALRGRNIIDTEDPAKPSKIFAPSGLMPTKAERDLQVEWDAFYEEHPELDLESVHKDKEHA”, for which the protein production result is given as “failed”.

For the sequence “MDTVTKLSIIIPAWNEETGIARTLETLLALTAGRGDTEIIVSVSGNDRTKAIARTFPVVVCHSEKGRAVQMNAGAKLATGSILYFLHADTTPPPSFCDDIFSAIERGARAGCFRMTFDDPDWLMQLYGWFTQFPLPVCRGGDQSLFITKELFGQIGGFDERLQIMEDIEIIDRLQRHAGFHILDSTVTTSARKYHTNGTVRLQAIFGTIHLMYALGFSQKNIVAFYRDSIRLEHHHHHH”, the protein production entry is recorded as “not failed”.

As to “MDTVTLARAFFGSSLAFHIIFATLGVGLSLMIFISEILYHWKKDSDYAIMAKRWTKAFAILLGVAIPTGTIVGVQISLLWPGFAKIVGQVISVPFQIEIFAFFLEALFMSIYVYAADKLPPFMRLISLFFVMLGATASAVLITSANTWMNTPAGFSMNPDGSVFNVDPWKAFFNPSFGTSAFHVVITAYATGAAVIASIAGFKLLKKNLSTREIAYHKKGLLLGLVVTFITGATMWLSGHESAIALHKHSPEKLASAEALFETTSHAPLSIGGVVDPNTLELNYALEIPNMLSLLVGLDPSTVVKGLKEFPQETWPPFYTHTLFNLMVGTAAFTFAVAAIALLYWYFVYRKKGTELPKWLLWGAAACGPIMMLGIEFGWIFSCSGRQPWTIYGMQRTVDASTRADFVGPLFVLFIILYIGLAILTVIVLRTFFRRHPLKNDLQHQGGDSHA”, the protein production result is given as “failed”.

Consider “MDVAIELTTRVGVLLFFIAICHVIAQRVRLPDPIILTAAGVTIGFGYVALEHVAPAFAANTIAPFLSPAMPPEAYLWIFLPPILFQAAIEVDSSGFVADLGPILLLAIGAVVAATLSVGAVAYLTSGQGLIACLLLGAIVSTTDPSTVIGLFQSSGAPARLIRLVEGESLFNDAAAIAITTLLTGVISVMPTHDAAHFPLAQFLLSLLGGCAVGWLVGVVLVFVSGAMRSPPFAEYSLSLALPNLIYPFAERVLHVSGVAAVVCAGLVVGRIMLSRRPASHVKLFRQLWLYQATIASASVLLLATAHVPSLLDDLRMIDVVILLLVLVAAVASRFGILSVSMPMMSRIGICKPLPVSHQLLIAWGGVRGPVTLTLAICLARNQDLAPDTRHFAAAMAAGFVLLNLFFNGLTLKLFARWLGVAAPGGRRPAAIEVD”, for which the protein production entry is on record as “failed”.

Regarding “MDVEKIPGSVCLVAPHANANPTWPADLAWVKQVLFRMGIKVVATLTHRTPIAEIENIASAETSLLLSHDAGQKAADYLSATFGIEQVCKGIPLEHHHHHH”, the protein production entry is listed as “failed”.
